Assay results reported in patent US20240270821A1, “GIP/GLP1/GCG TRI-RECEPTOR AGONISTS AND USES THEREOF” (priority 2023, published 2024).
Substitutions are numbered along the chain they refer to.

B1: Example 659 (peptide)
chain: YXQGTXTSDXSILLDKKAQXAFIEYLEEGGPSSGAPPPEGTE
modifications: synthetic construct; SITE 2: note = 2-Aminoisobutyric Acid; SITE 6: note = alpha-methyl-2-fluoro-L-phenylalanine; SITE 10: note = 3-(4-Pyridyl)-L-alanine; SITE 17: note = Lysine is chemically modified through conjugation of the epsilon-amino group of the Lysine side chain with (gamma-Glu)2-CO-(CH2)1
B2: Example 638 (peptide)
chain: YXQGTXTSDXSIXLDKKAQXXFIEYLTEGGPSSGEPPPSGSEE
modifications: Aib, αMeF(2F), 4Pal, αMeL, Orn; γGlu2-C18 diacid Lys; amide; synthetic construct; SITE 2: note = 2-Aminoisobutyric Acid; SITE 6: note = alpha-methyl-2-fluoro-L-phenylalanine; SITE 10: note = 3-(4-Pyridyl)-L-alanine; SITE 13: note = alpha-methyl-leucine; SITE 17: note = Lysine is chemically modified through conjugation of the epsilon-amino group of the Lysine
B3: Example 652 (peptide)
chain: B2 chain with S39E
modifications: synthetic construct; SITE 2: note = 2-Aminoisobutyric Acid; SITE 6: note = alpha-methyl-2-fluoro-L-phenylalanine; SITE 10: note = 3-(4-Pyridyl)-L-alanine; SITE 13: note = alpha-methyl-leucine; SITE 17: note = Lysine is chemically modified through conjugation of the epsilon-amino group of the Lysine
B4: Example 639 (peptide)
chain: B2 chain with T27Q
modifications: non-natural residues; K acylated (γGlu)2-C18 diacid; C-amide; synthetic construct; SITE 2: note = 2-Aminoisobutyric Acid; SITE 6: note = alpha-methyl-2-fluoro-L-phenylalanine; SITE 10: note = 3-(4-Pyridyl)-L-alanine; SITE 13: note = alpha-methyl-leucine; SITE 17: note = Lysine is chemically modified through conjugation of the epsilon-amino group of the Lysine
B5: Example 653 (peptide)
chain: B2 chain with T27Q, S39E
modifications: synthetic construct; SITE 2: note = 2-Aminoisobutyric Acid; SITE 6: note = alpha-methyl-2-fluoro-L-phenylalanine; SITE 10: note = 3-(4-Pyridyl)-L-alanine; SITE 13: note = alpha-methyl-leucine; SITE 17: note = Lysine is chemically modified through conjugation of the epsilon-amino group of the Lysine
B6: Example 650 (peptide)
chain: B2 chain with T27A, S39E
modifications: synthetic construct; SITE 2: note = 2-Aminoisobutyric Acid; SITE 6: note = alpha-methyl-2-fluoro-L-phenylalanine; SITE 10: note = 3-(4-Pyridyl)-L-alanine; SITE 13: note = alpha-methyl-leucine; SITE 17: note = Lysine is chemically modified through conjugation of the epsilon-amino group of the Lysine
B7: Example 651 (peptide)
chain: B2 chain with T27S, S39E
modifications: synthetic construct; SITE 2: note = 2-Aminoisobutyric Acid; SITE 6: note = alpha-methyl-2-fluoro-L-phenylalanine; SITE 10: note = 3-(4-Pyridyl)-L-alanine; SITE 13: note = alpha-methyl-leucine; SITE 17: note = Lysine is chemically modified through conjugation of the epsilon-amino group of the Lysine
B8: Example 656 (peptide)
chain: YXQGTXTSDXXIXLDXKAQXXFIEXLQEGGPSSGEPPPEGTEE
modifications: acyl linker with epsilon-Lys; synthetic construct; SITE 2: note = 2-Aminoisobutyric Acid; SITE 6: note = alpha-methyl-2-fluoro-L-phenylalanine; SITE 10: note = 3-(4-Pyridyl)-L-alanine; SITE 11: note = alpha-methyl-L-serine; SITE 13: note = alpha-methyl-leucine; SITE 16: note = L-ornithine; SITE 17: note = Lysine is chemically mo
B9: Example 660 (peptide)
chain: YXQGTXTSDXSILLDKKAQXAFIEYLEEGGPSSGAPPPEGTGE
modifications: synthetic construct; SITE 2: note = 2-Aminoisobutyric Acid; SITE 6: note = alpha-methyl-2-fluoro-L-phenylalanine; SITE 10: note = 3-(4-Pyridyl)-L-alanine; SITE 17: note = Lysine is chemically modified through conjugation of the epsilon-amino group of the Lysine side chain with (gamma-Glu)2-CO-(CH2)1
B10: Example 665 (peptide)
chain: B9 chain with K16X, Y25X, E39S
modifications: synthetic construct; SITE 2: note = 2-Aminoisobutyric Acid; SITE 6: note = alpha-methyl-2-fluoro-L-phenylalanine; SITE 10: note = 3-(4-Pyridyl)-L-alanine; SITE 16: note = L-ornithine; SITE 17: note = Lysine is chemically modified through conjugation of the epsilon-amino group of the Lysine side chai
B11: Example 669 (peptide)
chain: B9 chain with Y25X, E39S
modifications: synthetic construct; SITE 2: note = 2-Aminoisobutyric Acid; SITE 6: note = alpha-methyl-2-fluoro-L-phenylalanine; SITE 10: note = 3-(4-Pyridyl)-L-alanine; SITE 17: note = Lysine is chemically modified through conjugation of the epsilon-amino group of the Lysine side chain with (2-[2-(2-Amino-ethoxy))
B12: Example 662 (peptide)
chain: B9 chain with E39S
modifications: synthetic construct; SITE 2: note = 2-Aminoisobutyric Acid; SITE 6: note = alpha-methyl-2-fluoro-L-phenylalanine; SITE 10: note = 3-(4-Pyridyl)-L-alanine; SITE 17: note = Lysine is chemically modified through conjugation of the epsilon-amino group of the Lysine side chain with (2-[2-(2-Amino-ethoxy))
B13: Example 664 (peptide)
chain: B9 chain with Y25X, E39S
modifications: synthetic construct; SITE 2: note = 2-Aminoisobutyric Acid; SITE 6: note = alpha-methyl-2-fluoro-L-phenylalanine; SITE 10: note = 3-(4-Pyridyl)-L-alanine; SITE 17: note = Lysine is chemically modified through conjugation of the epsilon-amino group of the Lysine side chain with (gamma-Glu)2-CO-(CH2)1
B14: Example 666 (peptide)
chain: B9 chain with Y25X, E39S, T41S
modifications: synthetic construct; SITE 2: note = 2-Aminoisobutyric Acid; SITE 6: note = alpha-methyl-2-fluoro-L-phenylalanine; SITE 10: note = 3-(4-Pyridyl)-L-alanine; SITE 17: note = Lysine is chemically modified through conjugation of the epsilon-amino group of the Lysine side chain with (gamma-Glu)2-CO-(CH2)1
B15: Example 661 (peptide)
chain: B9 chain with E27X, E39S
modifications: synthetic construct; SITE 2: note = 2-Aminoisobutyric Acid; SITE 6: note = alpha-methyl-2-fluoro-L-phenylalanine; SITE 10: note = 3-(4-Pyridyl)-L-alanine; SITE 17: note = Lysine is chemically modified through conjugation of the epsilon-amino group of the Lysine side chain with (gamma-Glu)2-CO-(CH2)1
B16: Example 668 (peptide)
chain: B9 chain with Y25X, E39S, T41G
modifications: synthetic construct; SITE 2: note = 2-Aminoisobutyric Acid; SITE 6: note = alpha-methyl-2-fluoro-L-phenylalanine; SITE 10: note = 3-(4-Pyridyl)-L-alanine; SITE 17: note = Lysine is chemically modified through conjugation of the epsilon-amino group of the Lysine side chain with (gamma-Glu)2-CO-(CH2)1

biological target: hGLP-1R (Homo sapiens, UniProt P43220); experiment: cell-based or functional assay
Sequence (P43220 24-463): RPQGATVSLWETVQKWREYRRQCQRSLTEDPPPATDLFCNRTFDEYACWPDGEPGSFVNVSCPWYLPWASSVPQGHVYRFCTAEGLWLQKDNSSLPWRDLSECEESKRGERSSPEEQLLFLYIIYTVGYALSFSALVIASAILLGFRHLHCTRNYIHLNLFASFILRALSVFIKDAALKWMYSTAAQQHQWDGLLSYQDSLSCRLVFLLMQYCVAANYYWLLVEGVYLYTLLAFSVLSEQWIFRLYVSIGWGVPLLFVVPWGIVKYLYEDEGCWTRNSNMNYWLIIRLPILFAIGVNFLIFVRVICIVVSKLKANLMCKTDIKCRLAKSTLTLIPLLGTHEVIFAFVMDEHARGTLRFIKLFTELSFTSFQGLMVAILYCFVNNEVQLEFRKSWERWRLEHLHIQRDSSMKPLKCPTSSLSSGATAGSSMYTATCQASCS

Going from B1 to B3, the cAMP Rel EC50 (1% HSA) falls from 81.5 nM to 26.8 nM (3-fold).

B5 and B6 are within 1.5-fold of each other in cAMP Rel EC50 (1% HSA): 25 nM for the first, 31.4 nM for the second.

Going from B7 to B8, the cAMP Rel EC50 (1% HSA) rises from 53.9 nM to 119 nM (2.2-fold).

Compared with B9, B10 is 2.3-fold lower in cAMP Rel EC50 (1% HSA): 76.9 nM for the first, 32.8 nM for the second.

Compared with B11, B12 is 3.1-fold higher in cAMP Rel EC50 (1% HSA): 27.3 nM for the first, 84.5 nM for the second.

B13 and B14 are within 1.5-fold of each other in cAMP Rel EC50 (1% HSA): 27.7 nM for the first, 32.3 nM for the second.

Compared with B15, B16 is 1.9-fold lower in cAMP Rel EC50 (1% HSA): 50.9 nM for the first, 27.1 nM for the second.

B2 and B4 are within 1.5-fold of each other in Relative cAMP EC50: 0.4 nM for the first, 0.374 nM for the second.

B2 and B4 are within 1.5-fold of each other in cAMP Rel EC50 (in the presence of 1% HSA): 36 nM for the first, 27.9 nM for the second.

biological target: T1, human GIP receptor (human) (UniProt P48546); experiment: cell-based or functional assay
T1 sequence (looked up): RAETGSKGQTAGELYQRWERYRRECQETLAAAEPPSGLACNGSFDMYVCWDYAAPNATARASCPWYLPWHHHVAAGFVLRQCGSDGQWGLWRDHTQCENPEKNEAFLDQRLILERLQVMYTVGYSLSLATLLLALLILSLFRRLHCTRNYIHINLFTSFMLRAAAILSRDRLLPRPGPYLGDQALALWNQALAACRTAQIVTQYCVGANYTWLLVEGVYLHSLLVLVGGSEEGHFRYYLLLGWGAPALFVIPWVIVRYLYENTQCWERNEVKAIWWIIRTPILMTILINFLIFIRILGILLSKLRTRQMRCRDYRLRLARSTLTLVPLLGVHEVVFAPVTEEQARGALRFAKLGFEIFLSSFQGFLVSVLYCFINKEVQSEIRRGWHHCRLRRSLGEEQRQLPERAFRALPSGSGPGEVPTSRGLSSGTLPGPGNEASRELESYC

First: B1
Second: B3
The cAMP Rel EC50 (1% HSA) of the first is 3-fold higher: 5.75 nM for the first, 1.92 nM for the second.

Compared with B5, B6 is 2.2-fold higher in cAMP Rel EC50 (1% HSA): 1.38 nM for the first, 3.1 nM for the second.

B7 and B8 are within 1.5-fold of each other in cAMP Rel EC50 (1% HSA): 6.3 nM for the first, 7.13 nM for the second.

Going from B9 to B10, the cAMP Rel EC50 (1% HSA) falls from 4.64 nM to 2.1 nM (2.2-fold).

First: B11
Second: B12
The cAMP Rel EC50 (1% HSA) of the first is 3.3-fold lower: 1.41 nM for the first, 4.69 nM for the second.

B13 and B14 are within 1.5-fold of each other in cAMP Rel EC50 (1% HSA): 1.18 nM for the first, 1.39 nM for the second.

Compared with B15, B16 is 2.7-fold lower in cAMP Rel EC50 (1% HSA): 4.62 nM for the first, 1.69 nM for the second.

First: B2
Second: B4
The Relative cAMP EC50 of the first is 1.5-fold higher: 0.0354 nM for the first, 0.0231 nM for the second.

B2 and B4 are within 1.5-fold of each other in cAMP Rel EC50 (in the presence of 1% HSA): 2.39 nM for the first, 2.04 nM for the second.

biological target: human glucagon receptor (human) (UniProt P47871); experiment: cell-based or functional assay
Sequence (P47871 26-477): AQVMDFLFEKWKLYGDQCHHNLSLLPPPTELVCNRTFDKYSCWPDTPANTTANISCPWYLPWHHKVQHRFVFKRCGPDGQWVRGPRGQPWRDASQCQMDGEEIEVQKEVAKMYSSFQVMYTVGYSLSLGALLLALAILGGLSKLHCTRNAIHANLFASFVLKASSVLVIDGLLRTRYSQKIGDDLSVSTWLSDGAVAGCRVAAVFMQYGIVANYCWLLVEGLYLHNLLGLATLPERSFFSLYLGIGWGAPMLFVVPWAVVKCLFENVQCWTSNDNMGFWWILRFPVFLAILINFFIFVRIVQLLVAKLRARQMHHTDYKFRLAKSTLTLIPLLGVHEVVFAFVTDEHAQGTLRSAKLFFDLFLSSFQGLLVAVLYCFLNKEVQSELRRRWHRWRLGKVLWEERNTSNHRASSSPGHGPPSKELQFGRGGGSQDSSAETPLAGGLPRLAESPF

B1 and B3 are within 1.5-fold of each other in cAMP Rel EC50 (1% HSA): 735 nM for the first, 764 nM for the second.

B5 and B6 are within 1.5-fold of each other in cAMP Rel EC50 (1% HSA): 542 nM for the first, 574 nM for the second.

B7 and B8 are within 1.5-fold of each other in cAMP Rel EC50 (1% HSA): 639 nM for the first, 662 nM for the second.

Going from B9 to B10, the cAMP Rel EC50 (1% HSA) falls from 455 nM to 285 nM (1.6-fold).

Going from B11 to B12, the cAMP Rel EC50 (1% HSA) rises from 173 nM to 561 nM (3.2-fold).

B13 and B14 are within 1.5-fold of each other in cAMP Rel EC50 (1% HSA): 179 nM for the first, 224 nM for the second.

B15 and B16 are within 1.5-fold of each other in cAMP Rel EC50 (1% HSA): 160 nM for the first, 203 nM for the second.

Compared with B2, B4 is 1.8-fold lower in Relative cAMP EC50: 14 nM for the first, 8 nM for the second.

B2 and B4 are within 1.5-fold of each other in cAMP Rel EC50 (in the presence of 1% HSA): 1090 nM for the first, 750 nM for the second.
